# B1: ORF74-Rluc8 [Kaposi's sarcoma-associated herpesvirus (KSHV)] / β-arrestin1-eYFP [not stated] (parent)
# chain 1: MGDKGTRVFKKASPNGKLTVYLGKRDFVDHIDLVDPVDGVVLVDPEYLKERRVYVTLTCAFRYGREDLDVLGLTFRKDLFVANVQSFPPAPEDKKPLTRLQERLIKKLGEHAYPFTFEIPPNLPCSVTLQPGPEDTGKACGVDYEVKAFCAENLEEKIHKRNSVRLVIRKVQYAPERPGPQPTAETTRQFLMSDKPLHLEASLDKEIYYHGEPISVNVHVTNNTNKTVKKIKISVRQYADICLFNTAQYKCPVAMEEADDTVAPSSTFCKVYTLTPFLANNREKRGLALDGKLKHEDTNLASSTLLREGANREILGIIVSYKVKVKLVVSRGGLLGDLASSDVAVELPFTLMHPKPKEEPPHREVPENETPVDTNLIELDTNDDDIVFEDFARQRLKGMKDDKEEEEDGTGSPQLNNR
# chain 2: MAAEDFLTIFLDDDESWNETLNMSGYDYSGNFSLEVSVCEMTTVVPYTWNVGILSLIFLINVLGNGLVTYIFCKHRSRAGAIDILLLGICLNSLCLSISLLAEVLMFLFPNIISTGLCRLEIFFYYLYVYLDIFSVVCVSLVRYLLVAYSTRSWPKKQSLGWVLTSAALLIALVLSGDACRHRSRVVDPVSKQAMCYENAGNMTADWRLHVRTVSVTAGFLLPLALLILFYALTWCVVRRTKLQARRKVRGVIVAVVLLFFVFCFPYHVLNLLDTLLRRRWIRDSCYTRGLINVGLAVTSLLQALYSAVVPLIYSCLGSLFRQRMYGLFQSLRQSFMSGATT
# Variants of: B1
# Assay: BRET
# Conditions: with β-arrestin1-eYFP; 300 nM CXCL1 (black bar); vehicle bar ~1.00; parent: 1.14; read off a plot
row,Variant,response [fold basal]
1,chain 2 S315A S319A S331A S335A S338A T341A T342A,1
